Data as given in publication PMC8786727, “Oligomerization of the FliF Domains Suggests a Coordinated Assembly of the Bacterial Flagellum MS Ring” (Frontiers in Microbiology, 2021).

How the values were obtained:
[1] = target: the molecule itself; experiment: cryo-EM 2D classification; protein at 10 mg/ml in 50 mM Hepes pH 9.0, 150 mM NaCl; symmetry read from top-view 2D classes; no 3D structure
[2] = target: the molecule itself; experiment: SEC; purified protein on Superdex 200 10/300 or Superose 6 10/300; 50 mM Hepes pH 8.0 or 9.0, 500 mM NaCl; oligomeric state from the elution volume

| Protein | stoichiometry N [1] | binding result [2] |
| --- | --- | --- |
| S. Typhimurium FliF RBM2 (FliF_(124–229)) (domain or fragment, FliF, Salmonella enterica serovar Typhimurium, residues 124-229 (RBM2 and linker L2); Made by site-directed mutagenesis from the FliF 50-438 pET-28a construct; also called RBM2 + L2; source: E. coli BL21 DE3, purified (Ni-NTA, SEC on Superdex 200); copies: 23) SQFSEQVNYQRALEGELARTIETLGPVKSARVHLAMPKPSLFVREQKSPSASVTVTLEPGRALDEGQISAVVHLVSSAVAGLPPGNVTLVDQSGHLLTQSNTSGRD | 23 |  |
| S. Typhimurium FliF RBM3 (FliF_(231–438)) (domain or fragment, FliF, Salmonella enterica serovar Typhimurium, residues 231-438 (RBM3); Made by site-directed mutagenesis from the FliF 50-438 pET-28a construct; Forms rings; the number of subunits of this construct was not measured; source: E. coli BL21 DE3, purified (Ni-NTA, SEC on Superose 6)) NDAQLKFANDVESRIQRRIEAILSPIVGNGNVHAQVTAQLDFANKEQTEEHYSPNGDASKATLRSRQLNISEQVGAGYPGGVPGALSNQPAPPNEAPIATPPTNQQNAQNTPQTSTSTNSNSAGPRSTQRNETSNYEVDRTIRHTKMNVGDIERLSVAVVVNYKTLADGKPLPLTADQMKQIEDLTREAMGFSDKRGDTLNVVNSPFS |  | binds |
| S. Typhimurium FliF RBM1-RBM2-RBM3 (FliF_(50–438)) (domain or fragment, FliF (flagellar M-ring protein), Salmonella enterica serovar Typhimurium, residues 50-438 (RBM1, RBM2 and RBM3, without the two trans-membrane helices); full length is 1-560; Synthetic gene in pET-28a; 33-fold symmetry seen in top-view cryo-EM 2D classes; the rings also stick together (~10 MDa by SEC-MALS); also called StFliF_(50–438); periplasmic region of FliF; source: E. coli BL21 DE3, …) DYRTLFSNLSDQDGGAIVAQLTQMNIPYRFANGSGAIEVPADKVHELRLRLAQQGLPKGGAVGFELLDQEKFGISQFSEQVNYQRALEGELARTIETLGPVKSARVHLAMPKPSLFVREQKSPSASVTVTLEPGRALDEGQISAVVHLVSSAVAGLPPGNVTLVDQSGHLLTQSNTSGRDLNDAQLKFANDVESRIQRRIEAILSPIVGNGNVHAQVTAQLDFANKEQTEEHYSPNGDASKATLRSRQLNISEQVGAGYPGGVPGALSNQPAPPNEAPIATPPTNQQNAQNTPQTSTSTNSNSAGPRSTQRNETSNYEVDRTIRHTKMNVGDIERLSVAVVVNYKTLADGKPLPLTADQMKQIEDLTREAMGFSDKRGDTLNVVNSPFS | 33 |  |
